Reference: patent US20230279147A1 (AELAN CELL TECHNOLOGIES, published 2023)
Where no end group is shown, it is not given here. Me2 = dimethyl on Lys side chain (K(me2))

T1: H1.0K180me2 peptide (human)
T1 construct: also called H1.0Kme2 peptide
T1 peptide: CAKPVKASKPKKAKPVK(Me2)PK


What was measured:
[1] = system: recombinant human H1.0 protein, full length, unmethylated
H1.0K180me2 peptide = molecular target: T1, H1.0K180me2 peptide; assay: ELISA on coated peptides, compared at the antibody concentration that gives the threshold O.D. 1.5
Method: The specificity of the recombinant rabbit anti-H1.0K180me2 monoclonal IgG antibody clones for H1.0K180me2 peptide was determined using ELISA in FIG. 2A. Wells were coated with H1.0K180me2 peptide; 50 ul of peptide solution (5 ug/ml) was used to coat each well. 100 ul of each clone antibody was added to wells in a 2× dilution series. Curves for each peptide were generated by plotting antibody concentration against measured O.D at 450 nm. In order to directly compare the binding efficiencies of the different clones, a threshold cut-off was selected that intersected the linear range of each of the clone titration curves (horizontal dashed line at O.D. 1.5). Clone A (RW24) has the highest binding affinity for H1.0K180me2 peptide.
The non-specific binding of the antibody clones to unmodified H1.0 peptide was also determined by ELISA as above in FIG. 2B. Clones D (RW28) and E (RW36) both bound to unmodified H1.0 peptide with high affinity. At the threshold concentration calculated above, Clone A (RW24) was 20× more efficient at binding H1.0K180me2 peptide than unmodified H1.0 peptide, Clone B (RW6): 23×, Clone C (RW37): 22×, Clone D (RW28): 2×, Clone E (RW36): 5×.

| Molecule | in vitro methylation reaction analysed by LC-MS [1] | fold more efficient at binding H1.0K180me2 peptide than unmodified H1.0 peptide (H1.0K180me2 peptide) |
| --- | --- | --- |
| recombinant G9A (methyltransferase) | G9A specifically methylates several C-terminal lysine residues, including H1.0K180me2 |  |
| Clone A (RW24), recombinant rabbit anti-H1.0K180me2 monoclonal IgG antibody (antibody, V domains shown, Tested as a full-length recombinant rabbit monoclonal IgG) VH: QSVEESGGRLVTPGTPLTLTCTVSGFSLNNYVMMWVRQAPGEGLEWIAAITTGGTTYYANWAKGRFTISKTSTTVDLKIISPTTEDTATYFCARDLYGDTSDDIWDAFDPWGPGTLVTVSS VL: DPVLTQTPSSVSAAVGGTVTISCQSSESVYKNNNLAWYQQKPGQPPKLLIYSASTLASGVPSRFKGSGSGTQFTLTISGVQCDDAATYYCLGVYSDIFAF |  | 20 × |
